Test results from patent US20020045192A1, “Arf and HDM2 interaction domains and methods of use thereof” (St. Jude Children's Research Hospital, priority 2001, published 2002).

T1: mArfN37 (Mus musculus, UniProt Q64364)
T1 construct: An N-terminal fragment of mouse p19^Arf corresponding to residues 1-37 (mArfN37) was purified in a similar manner; made in house
T1 sequence (Q64364 1-37 limits assumed): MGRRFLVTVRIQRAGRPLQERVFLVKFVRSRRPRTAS

T2: GFP-p19^Arf (Mus musculus, UniProt Q64364)
T2 construct: expressed in transfected cells; host or cells: NIH 3T3 Arf-/- cells
T2 sequence (Q64364 1-169): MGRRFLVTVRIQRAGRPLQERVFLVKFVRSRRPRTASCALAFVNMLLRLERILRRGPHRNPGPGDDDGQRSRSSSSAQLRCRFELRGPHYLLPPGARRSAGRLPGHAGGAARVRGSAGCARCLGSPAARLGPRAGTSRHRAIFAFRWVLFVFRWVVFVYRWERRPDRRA

B1: Hdm2 210-275: Fragment of Hdm2 corresponding to residues 210-275 of SEQ ID NO:8 (protein, listed as Homo sapiens)
chain: SSSSESTGTPSNPDLDAGVSEHSGDWLDQDSVSDQFSVEFEVESLDSEDYSLSEEGQELSDEDDEV
B2: Hdm2 277-350: Texas Red labeled Hdm2 deletion construct containing residues 277-350 (protein)
chain: QVTVYQAGESDTDSFEEDPEISLADYWKCTSCNEMNPPLPSHCNRCWALRENWLPEDKGKDKGEISEKAKLENS

What was measured:
mArfN37 = target: T1, mArfN37; assay: SPR binding of Hdm2 constructs and Hdm2 peptides to immobilized His-tagged mArfN37; settings: His-mArfN37 captured by covalently linked His antibody
Procedure: Binding studies were performed using a Biacore 3000 surface plasmon resonance (SPR) instrument (Biacore, Inc.). A Tetra-His™ Antibody (Qiagen, Inc.; Cat. #34670) was covalently attached to a carboxymethylated gold surface (C-1 chip; Biacore, Inc.). The carboxymethyl groups on the surface were activated with N-ethyl-N′-(3-dimethylaminopropyl) carbodiimide (EDC) and N-hydroxysuccinimide (NHS) and the antibody was attached at pH 7.4 in 20 mM sodium phosphate buffer, 150 mM NaCl (PBS). Reactive sites remaining on the surface were blocked by reaction with ethanolamine. […] Binding was measured by flowing the non-His-tagged analyte through the reference and ligand-containing flow cells in sequence. […] Changes in the SPR response due to solvent differences and the injection process were monitored by injection of HBS-N buffer alone. […]
It has been previously shown that a fragment of mouse p19^Arf containing the N-terminal 37 amino acids (mArfN37) can (i) bind Hdm2, (ii) cause the relocalization of Hdm2 to nucleoli, and (iii) induce cell cycle arrest in MEFs [see, U.S. patent application Ser. No. 09/480,718, Filed Jan. […] However, because mArfN37 is a relatively small polypeptide, it was determined whether it could bind a correspondingly small segment of Hdm2. […]

GFP-p19^Arf = target: T2, GFP-p19^Arf; assay: Nuclear microinjection and live cell imaging of Texas Red labeled Hdm2 constructs in NIH 3T3 cells lacking Arf; assay type: cell-based; settings: NIH 3T3 Arf-/- cells, nuclear microinjection
Procedure: Proteins for fluorescence microimaging studies were covalently modified using an amine-reactive, sulfosuccinimidyl ester of Texas Red™ (Molecular Probes, Inc., Cat. # C-1171). In brief, purified Hdm2-derived proteins were dialyzed into 100 mM sodium bicarbonate buffer, pH 8.3 at 2-4 mg/ml. The Texas Red™ dye was dissolved in dimethylsulfoxide at 10 mg/ml. Protein and dye 3:1 (vol:vol) were reacted for 1 hour at room temperature followed by purification using size-exclusion chromatography (NAP 5 G-25 columns, Amersham Pharmacia Biotech, Inc.). Labeled protein bands migrated more slowly than unlabeled protein in SDS-polyacrylamide gels consistent with the covalent attachment of dye.
NIH 3T3 Arf^−/− cells passage 10-15 were cultured in Dulbecco's modified Eagle's medium (Dulbecco's modified Eagle's medium (DMEM); Gibco-Invitrogen, Inc.), 10% fetal bovine serum (FBS) at 37° C., 7% CO2. 24 hours prior to transfection, cells were plated on 35 mm dishes coated with poly-D-Lysine (Mattek, Corp.) at a density of 3×10^4 cells per dish. […] An Axiovert 135 TV inverted fluorescence microscope with an automated stage controller (Carl Zeiss, Inc.) and circulating water bath heater (Fisher) was used for both microinjection and imaging. […]

Molecule | binding to His-tagged mArfN37 immobilized on the SPR biosensor surface (mArfN37) | localization of Texas Red labeled Hdm2 construct when GFP-p19^Arf is expressed (GFP-p19^Arf)
B1 | bind tightly | nucleolar localization
B2 |  | localized in the nucleoplasm rather than in nucleoli
